± gives the uncertainty stated by the source.

This series can be described thus: abundance fitness (aPCA) (normalised: wild type 0, dead -1); higher = more abundant; growth selection in yeast, the domain comes from the species named. The settings on record: Homo sapiens.
“SAFB-like transcription modulator E58R, Q9NWH9” displayed an abundance fitness of 0.028 ± 0.034.
With “SAFB-like transcription modulator E58S, Q9NWH9”, the abundance fitness turned out to be 0.024 ± 0.053.
On to “SAFB-like transcription modulator E58T, Q9NWH9”, for which the abundance fitness is -0.043 ± 0.067.
“SAFB-like transcription modulator E58V, Q9NWH9” yielded an abundance fitness of -0.074 ± 0.06.
As for “SAFB-like transcription modulator E58W, Q9NWH9”, the figure is -0.52 ± 0.076.
In the case of “SAFB-like transcription modulator E58Y, Q9NWH9”, the abundance fitness was -0.342 ± 0.076.
With “SAFB-like transcription modulator E59C, Q9NWH9” the figure was -0.404 ± 0.037; with “SAFB-like transcription modulator E59D, Q9NWH9”, -0.225 ± 0.087.
With “SAFB-like transcription modulator E59F, Q9NWH9” the figure was -0.924 ± 0.07; with “SAFB-like transcription modulator E59G, Q9NWH9”, -0.226 ± 0.044; with “SAFB-like transcription modulator E59I, Q9NWH9”, -0.784 ± 0.1.
“SAFB-like transcription modulator E59K, Q9NWH9”: the abundance fitness was -0.653 ± 0.13.
As for “SAFB-like transcription modulator E59L, Q9NWH9”, the abundance fitness was -0.794 ± 0.041.
For “SAFB-like transcription modulator E59N, Q9NWH9”, the abundance fitness is -0.275 ± 0.056.
For the substance “SAFB-like transcription modulator E59P, Q9NWH9”, the abundance fitness was -0.768 ± 0.05.
As to “SAFB-like transcription modulator E59Q, Q9NWH9”, the abundance fitness is -0.336 ± 0.078.
With “SAFB-like transcription modulator E59R, Q9NWH9” the figure was -0.532 ± 0.054; with “SAFB-like transcription modulator E59T, Q9NWH9”, -0.323 ± 0.073.
For the substance “SAFB-like transcription modulator E59V, Q9NWH9”, the abundance fitness was -0.459 ± 0.052.
As to “SAFB-like transcription modulator E59W, Q9NWH9”, the abundance fitness was -1.02 ± 0.089.
“SAFB-like transcription modulator E67A, Q9NWH9” yielded an abundance fitness of -0.197 ± 0.046.
For “SAFB-like transcription modulator E67C, Q9NWH9”, the abundance fitness was -0.252 ± 0.087.
“SAFB-like transcription modulator E67D, Q9NWH9” yielded an abundance fitness of -0.107 ± 0.086.
With “SAFB-like transcription modulator E67F, Q9NWH9” the figure was -0.041 ± 0.078; with “SAFB-like transcription modulator E67G, Q9NWH9”, -0.198 ± 0.049; with “SAFB-like transcription modulator E67H, Q9NWH9”, -0.107 ± 0.15.
In the case of “SAFB-like transcription modulator E67I, Q9NWH9”, the abundance fitness is 0.017 ± 0.08.
As to “SAFB-like transcription modulator E67K, Q9NWH9”, the abundance fitness is -0.225 ± 0.082.
As for “SAFB-like transcription modulator E67L, Q9NWH9”, the figure is -0.134 ± 0.035; as for “SAFB-like transcription modulator E67M, Q9NWH9”, -0.308 ± 0.092; as for “SAFB-like transcription modulator E67N, Q9NWH9”, -0.002 ± 0.069.
For the substance “SAFB-like transcription modulator E67P, Q9NWH9”, the abundance fitness is -0.155 ± 0.089.
As for “SAFB-like transcription modulator E67Q, Q9NWH9”, the figure is -0.35 ± 0.1; as for “SAFB-like transcription modulator E67S, Q9NWH9”, -0.084 ± 0.04; as for “SAFB-like transcription modulator E67T, Q9NWH9”, -0.099 ± 0.049.
For the substance “SAFB-like transcription modulator E67V, Q9NWH9”, the abundance fitness is -0.042 ± 0.037.
“SAFB-like transcription modulator E67W, Q9NWH9” displayed an abundance fitness of -0.27 ± 0.037.
“SAFB-like transcription modulator E67Y, Q9NWH9” yielded an abundance fitness of -0.019 ± 0.11.
With “SAFB-like transcription modulator G19A, Q9NWH9” the figure was -0.101 ± 0.09; with “SAFB-like transcription modulator G19C, Q9NWH9”, -0.391 ± 0.19.
The substance “SAFB-like transcription modulator G19D, Q9NWH9” registered an abundance fitness of -0.027 ± 0.078.
As for “SAFB-like transcription modulator G19E, Q9NWH9”, the abundance fitness is -0.014 ± 0.086.
As to “SAFB-like transcription modulator G19I, Q9NWH9”, the abundance fitness was 0.503 ± 0.23.
“SAFB-like transcription modulator G19R, Q9NWH9” gave an abundance fitness of -0.757 ± 0.2.
Turning to “SAFB-like transcription modulator G19S, Q9NWH9”, the abundance fitness was -0.003 ± 0.064.
As for “SAFB-like transcription modulator G19T, Q9NWH9”, the figure is -0.406 ± 0.34; as for “SAFB-like transcription modulator G19V, Q9NWH9”, 0.053 ± 0.072.
As to “SAFB-like transcription modulator G19W, Q9NWH9”, the abundance fitness is -0.72 ± 0.35.
“SAFB-like transcription modulator G19Y, Q9NWH9” gave an abundance fitness of 0.212 ± 0.24.
“SAFB-like transcription modulator G43C, Q9NWH9” came in with an abundance fitness of -0.464 ± 0.19.
As to “SAFB-like transcription modulator G43D, Q9NWH9”, the abundance fitness is -0.712 ± 0.2.
With “SAFB-like transcription modulator G43V, Q9NWH9” the figure was -0.601 ± 0.26; with “SAFB-like transcription modulator G60A, Q9NWH9”, -0.317 ± 0.047.
For the substance “SAFB-like transcription modulator G60C, Q9NWH9”, the abundance fitness was -0.258 ± 0.036.
Turning to “SAFB-like transcription modulator G60D, Q9NWH9”, the abundance fitness was -0.171 ± 0.062.
On to “SAFB-like transcription modulator G60E, Q9NWH9”, for which the abundance fitness was -0.347 ± 0.05.
The substance “SAFB-like transcription modulator G60F, Q9NWH9” yielded an abundance fitness of -0.584 ± 0.06.
As for “SAFB-like transcription modulator G60I, Q9NWH9”, the abundance fitness was -0.792 ± 0.08.
In the case of “SAFB-like transcription modulator G60K, Q9NWH9”, the abundance fitness is -0.162 ± 0.052.
In the case of “SAFB-like transcription modulator G60L, Q9NWH9”, the abundance fitness was -0.396 ± 0.036.
As for “SAFB-like transcription modulator G60M, Q9NWH9”, the figure is -0.238 ± 0.038; as for “SAFB-like transcription modulator G60N, Q9NWH9”, -0.108 ± 0.04; as for “SAFB-like transcription modulator G60Q, Q9NWH9”, -0.181 ± 0.042.
As for “SAFB-like transcription modulator G60R, Q9NWH9”, the figure is -0.238 ± 0.033.
In turn, “SAFB-like transcription modulator G60S, Q9NWH9” displayed an abundance fitness of -0.308 ± 0.041.
In the case of “SAFB-like transcription modulator G60V, Q9NWH9”, the abundance fitness was -0.515 ± 0.04.
In turn, “SAFB-like transcription modulator G60W, Q9NWH9” came in with an abundance fitness of -0.658 ± 0.047.
For the substance “SAFB-like transcription modulator G60Y, Q9NWH9”, the abundance fitness was -0.591 ± 0.07.
With “SAFB-like transcription modulator G61A, Q9NWH9” the figure was -0.158 ± 0.049; with “SAFB-like transcription modulator G61C, Q9NWH9”, -0.164 ± 0.064.
In the case of “SAFB-like transcription modulator G61D, Q9NWH9”, the abundance fitness was -0.229 ± 0.056.
For “SAFB-like transcription modulator G61E, Q9NWH9”, the abundance fitness was -0.303 ± 0.064.
“SAFB-like transcription modulator G61F, Q9NWH9” showed an abundance fitness of -0.474 ± 0.072.
As for “SAFB-like transcription modulator G61H, Q9NWH9”, the figure is -0.16 ± 0.049.
In turn, “SAFB-like transcription modulator G61I, Q9NWH9” registered an abundance fitness of -0.415 ± 0.098.
“SAFB-like transcription modulator G61K, Q9NWH9”: the abundance fitness is -0.18 ± 0.06.
The substance “SAFB-like transcription modulator G61L, Q9NWH9” yielded an abundance fitness of -0.098 ± 0.043.
“SAFB-like transcription modulator G61M, Q9NWH9” returned an abundance fitness of -0.135 ± 0.06.
Substance “SAFB-like transcription modulator G61N, Q9NWH9” gave an abundance fitness of -0.208 ± 0.083.
In turn, “SAFB-like transcription modulator G61P, Q9NWH9” showed an abundance fitness of -0.31 ± 0.062.
For “SAFB-like transcription modulator G61Q, Q9NWH9”, the abundance fitness was -0.141 ± 0.066.
Substance “SAFB-like transcription modulator G61R, Q9NWH9” returned an abundance fitness of -0.227 ± 0.042.
As for “SAFB-like transcription modulator G61S, Q9NWH9”, the figure is -0.23 ± 0.049; as for “SAFB-like transcription modulator G61T, Q9NWH9”, -0.296 ± 0.046.
“SAFB-like transcription modulator G61V, Q9NWH9”: the abundance fitness is -0.39 ± 0.046.
“SAFB-like transcription modulator G61W, Q9NWH9” registered an abundance fitness of -0.537 ± 0.059.
“SAFB-like transcription modulator G61Y, Q9NWH9”: the abundance fitness is -0.259 ± 0.082.
For “SAFB-like transcription modulator I22A, Q9NWH9”, the abundance fitness is -0.65 ± 0.078.
Consider “SAFB-like transcription modulator I22C, Q9NWH9”, for which the abundance fitness was -0.347 ± 0.05.
The substance “SAFB-like transcription modulator I22D, Q9NWH9” gave an abundance fitness of -0.464 ± 0.087.
Regarding “SAFB-like transcription modulator I22E, Q9NWH9”, the abundance fitness is -0.57 ± 0.11.
